Starred links: 1 amine or outer side, 2 acyl side, 3 side chain; linkers in the order of their positions; H or OH if unused. Non-standard residues stand in square brackets, D forms with d. Groups on a side chain read outwards from the residue. No end group written: not given here. *: point of attachment. C20 diacid = O=C(O)CCCCCCCCCCCCCCCCCCC(=O)*; C18 diacid = O=C(O)CCCCCCCCCCCCCCCCC(=O)*; γGlu = O=C(O)[C@H](CCC(=O)[*:2])N[*:1]; AEEA = NCCOCCOCC(=O)O; Aib = CC(C)(N)C(=O)O
B1: peptide of SEQ ID NO: 173 (peptide)
peptide: IVLSLD[dV]PIKLK([AEEA-AEEA-γGlu-C20 diacid])QILLKQERQK[Aib]QREQAEKNKQILAQV-NH2
modifications: N-terminus assumed
SMILES: CC[C@H](C)[C@H](N)C(=O)N[C@H](C(=O)N[C@@H](CC(C)C)C(=O)N[C@@H](CO)C(=O)N[C@@H](CC(C)C)C(=O)N[C@@H](CC(=O)O)C(=O)N[C@@H](C(=O)N1CCC[C@H]1C(=O)N[C@H](C(=O)N[C@@H](CCCCN)C(=O)N[C@@H](CC(C)C)C(=O)N[C@@H](CCCCNC(=O)COCCOCCNC(=O)COCCOCCNC(=O)CC[C@H](NC(=O)CCCCCCCCCCCCCCCCCCC(=O)O)C(=O)O)C(=O)N[C@@H](CCC(N)=O)C(=O)N[C@H](C(=O)N[C@@H](CC(C)C)C(=O)N[C@@H](CC(C)C)C(=O)N[C@@H](CCCCN)C(=O)N[C@@H](CCC(N)=O)C(=O)N[C@@H](CCC(=O)O)C(=O)N[C@@H](CCCNC(=N)N)C(=O)N[C@@H](CCC(N)=O)C(=O)N[C@@H](CCCCN)C(=O)NC(C)(C)C(=O)N[C@@H](CCC(N)=O)C(=O)N[C@@H](CCCNC(=N)N)C(=O)N[C@@H](CCC(=O)O)C(=O)N[C@@H](CCC(N)=O)C(=O)N[C@@H](C)C(=O)N[C@@H](CCC(=O)O)C(=O)N[C@@H](CCCCN)C(=O)N[C@@H](CC(N)=O)C(=O)N[C@@H](CCCCN)C(=O)N[C@@H](CCC(N)=O)C(=O)N[C@H](C(=O)N[C@@H](CC(C)C)C(=O)N[C@@H](C)C(=O)N[C@@H](CCC(N)=O)C(=O)N[C@H](C(N)=O)C(C)C)[C@@H](C)CC)[C@@H](C)CC)[C@@H](C)CC)C(C)C)C(C)C
B2: peptide of SEQ ID NO: 183 (peptide)
peptide: IVLSLD[dV]PIKLK(C18 diacid)QILLKQARQK[Aib]QRAQAEKNKRILERV-NH2
modifications: N-terminus assumed
SMILES: CC[C@H](C)[C@H](N)C(=O)N[C@H](C(=O)N[C@@H](CC(C)C)C(=O)N[C@@H](CO)C(=O)N[C@@H](CC(C)C)C(=O)N[C@@H](CC(=O)O)C(=O)N[C@@H](C(=O)N1CCC[C@H]1C(=O)N[C@H](C(=O)N[C@@H](CCCCN)C(=O)N[C@@H](CC(C)C)C(=O)N[C@@H](CCCCNC(=O)CCCCCCCCCCCCCCCCC(=O)O)C(=O)N[C@@H](CCC(N)=O)C(=O)N[C@H](C(=O)N[C@@H](CC(C)C)C(=O)N[C@@H](CC(C)C)C(=O)N[C@@H](CCCCN)C(=O)N[C@@H](CCC(N)=O)C(=O)N[C@@H](C)C(=O)N[C@@H](CCCNC(=N)N)C(=O)N[C@@H](CCC(N)=O)C(=O)N[C@@H](CCCCN)C(=O)NC(C)(C)C(=O)N[C@@H](CCC(N)=O)C(=O)N[C@@H](CCCNC(=N)N)C(=O)N[C@@H](C)C(=O)N[C@@H](CCC(N)=O)C(=O)N[C@@H](C)C(=O)N[C@@H](CCC(=O)O)C(=O)N[C@@H](CCCCN)C(=O)N[C@@H](CC(N)=O)C(=O)N[C@@H](CCCCN)C(=O)N[C@@H](CCCNC(=N)N)C(=O)N[C@H](C(=O)N[C@@H](CC(C)C)C(=O)N[C@@H](CCC(=O)O)C(=O)N[C@@H](CCCNC(=N)N)C(=O)N[C@H](C(N)=O)C(C)C)[C@@H](C)CC)[C@@H](C)CC)[C@@H](C)CC)C(C)C)C(C)C
B3: peptide of SEQ ID NO: 174 (peptide)
peptide: IVLSLD[dV]PIKLK([AEEA-AEEA-γGlu-γGlu-C18 diacid])QILLKQARQK[Aib]QRAQAEKNKRILERV-NH2
modifications: N-terminus assumed
SMILES: CC[C@H](C)[C@H](N)C(=O)N[C@H](C(=O)N[C@@H](CC(C)C)C(=O)N[C@@H](CO)C(=O)N[C@@H](CC(C)C)C(=O)N[C@@H](CC(=O)O)C(=O)N[C@@H](C(=O)N1CCC[C@H]1C(=O)N[C@H](C(=O)N[C@@H](CCCCN)C(=O)N[C@@H](CC(C)C)C(=O)N[C@@H](CCCCNC(=O)COCCOCCNC(=O)COCCOCCNC(=O)CC[C@H](NC(=O)CC[C@H](NC(=O)CCCCCCCCCCCCCCCCC(=O)O)C(=O)O)C(=O)O)C(=O)N[C@@H](CCC(N)=O)C(=O)N[C@H](C(=O)N[C@@H](CC(C)C)C(=O)N[C@@H](CC(C)C)C(=O)N[C@@H](CCCCN)C(=O)N[C@@H](CCC(N)=O)C(=O)N[C@@H](C)C(=O)N[C@@H](CCCNC(=N)N)C(=O)N[C@@H](CCC(N)=O)C(=O)N[C@@H](CCCCN)C(=O)NC(C)(C)C(=O)N[C@@H](CCC(N)=O)C(=O)N[C@@H](CCCNC(=N)N)C(=O)N[C@@H](C)C(=O)N[C@@H](CCC(N)=O)C(=O)N[C@@H](C)C(=O)N[C@@H](CCC(=O)O)C(=O)N[C@@H](CCCCN)C(=O)N[C@@H](CC(N)=O)C(=O)N[C@@H](CCCCN)C(=O)N[C@@H](CCCNC(=N)N)C(=O)N[C@H](C(=O)N[C@@H](CC(C)C)C(=O)N[C@@H](CCC(=O)O)C(=O)N[C@@H](CCCNC(=N)N)C(=O)N[C@H](C(N)=O)C(C)C)[C@@H](C)CC)[C@@H](C)CC)[C@@H](C)CC)C(C)C)C(C)C
B4: peptide of SEQ ID NO: 182 (peptide)
peptide: IVLSLD[dV]PIKLK(C18 diacid)QILLKQERQK[Aib]QREQAEKNKQILAQV-NH2
modifications: N-terminus assumed
SMILES: CC[C@H](C)[C@H](N)C(=O)N[C@H](C(=O)N[C@@H](CC(C)C)C(=O)N[C@@H](CO)C(=O)N[C@@H](CC(C)C)C(=O)N[C@@H](CC(=O)O)C(=O)N[C@@H](C(=O)N1CCC[C@H]1C(=O)N[C@H](C(=O)N[C@@H](CCCCN)C(=O)N[C@@H](CC(C)C)C(=O)N[C@@H](CCCCNC(=O)CCCCCCCCCCCCCCCCC(=O)O)C(=O)N[C@@H](CCC(N)=O)C(=O)N[C@H](C(=O)N[C@@H](CC(C)C)C(=O)N[C@@H](CC(C)C)C(=O)N[C@@H](CCCCN)C(=O)N[C@@H](CCC(N)=O)C(=O)N[C@@H](CCC(=O)O)C(=O)N[C@@H](CCCNC(=N)N)C(=O)N[C@@H](CCC(N)=O)C(=O)N[C@@H](CCCCN)C(=O)NC(C)(C)C(=O)N[C@@H](CCC(N)=O)C(=O)N[C@@H](CCCNC(=N)N)C(=O)N[C@@H](CCC(=O)O)C(=O)N[C@@H](CCC(N)=O)C(=O)N[C@@H](C)C(=O)N[C@@H](CCC(=O)O)C(=O)N[C@@H](CCCCN)C(=O)N[C@@H](CC(N)=O)C(=O)N[C@@H](CCCCN)C(=O)N[C@@H](CCC(N)=O)C(=O)N[C@H](C(=O)N[C@@H](CC(C)C)C(=O)N[C@@H](C)C(=O)N[C@@H](CCC(N)=O)C(=O)N[C@H](C(N)=O)C(C)C)[C@@H](C)CC)[C@@H](C)CC)[C@@H](C)CC)C(C)C)C(C)C

target: rat CRF2R α receptor (rat, UniProt P47866 20-411); assay: cell-based or functional assay
Sequence (P47866 20-411): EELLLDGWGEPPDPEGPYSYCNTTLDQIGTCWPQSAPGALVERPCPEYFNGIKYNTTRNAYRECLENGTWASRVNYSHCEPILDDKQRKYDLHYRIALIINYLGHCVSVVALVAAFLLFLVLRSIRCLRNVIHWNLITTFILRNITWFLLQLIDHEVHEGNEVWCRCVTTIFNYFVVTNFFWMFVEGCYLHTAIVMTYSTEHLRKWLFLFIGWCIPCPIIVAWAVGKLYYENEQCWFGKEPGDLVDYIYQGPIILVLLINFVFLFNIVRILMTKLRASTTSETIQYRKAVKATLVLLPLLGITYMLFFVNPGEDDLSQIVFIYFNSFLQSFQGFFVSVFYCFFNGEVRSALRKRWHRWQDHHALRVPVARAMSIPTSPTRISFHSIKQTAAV

B1 and B2 are within 1.5-fold of each other in “EC50 [nM], 0% HSA (cAMP, A7R5 cells)” value: 0.83 nM for the first, 1.12 nM for the second.

B3 and B4 are within 1.5-fold of each other in “EC50 [nM], 0% HSA (cAMP, A7R5 cells)” value: 0.42 nM for the first, 0.59 nM for the second.

— patent US12679878B2, “CRF2 receptor agonists and their use in therapy” (SANOFI, priority 2020, dated 2026)
